Measurements published in publication PMC4067516 (Journal of cell science, 2008).

Molecular target: β1 integrin (human (endogenous in EA.hy926), UniProt P05556 21-798)
Assay: co-IP

Chain of β1 integrin (P05556 21-798): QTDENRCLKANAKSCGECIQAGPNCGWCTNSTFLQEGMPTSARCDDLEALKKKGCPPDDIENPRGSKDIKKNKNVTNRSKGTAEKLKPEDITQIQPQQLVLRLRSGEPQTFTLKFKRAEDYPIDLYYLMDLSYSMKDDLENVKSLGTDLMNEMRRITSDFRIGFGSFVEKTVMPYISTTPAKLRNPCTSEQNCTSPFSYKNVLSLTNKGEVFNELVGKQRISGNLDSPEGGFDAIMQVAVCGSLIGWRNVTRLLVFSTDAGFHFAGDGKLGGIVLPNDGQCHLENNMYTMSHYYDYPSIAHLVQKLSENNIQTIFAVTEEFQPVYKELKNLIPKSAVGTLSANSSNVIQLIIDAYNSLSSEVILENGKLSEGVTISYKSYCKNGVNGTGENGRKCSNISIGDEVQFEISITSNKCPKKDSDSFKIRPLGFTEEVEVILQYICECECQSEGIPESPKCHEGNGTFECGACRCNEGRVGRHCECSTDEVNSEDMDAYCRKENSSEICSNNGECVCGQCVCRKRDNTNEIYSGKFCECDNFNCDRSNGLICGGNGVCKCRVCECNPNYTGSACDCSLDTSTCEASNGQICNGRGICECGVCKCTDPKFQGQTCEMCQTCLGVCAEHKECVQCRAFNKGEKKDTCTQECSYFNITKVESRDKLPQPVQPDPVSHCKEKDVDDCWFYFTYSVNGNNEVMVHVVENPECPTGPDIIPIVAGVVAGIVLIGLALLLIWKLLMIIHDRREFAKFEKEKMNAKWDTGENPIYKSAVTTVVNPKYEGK

B1: cannabinoid 1 receptor (receptor, human (endogenous in EA.hy926), UniProt P21554 1-472, looked up)
chain: MKSILDGLADTTFRTITTDLLYVGSNDIQYEDIKGDMASKLGYFPQKFPLTSFRGSPFQEKMTAGDNPQLVPADQVNITEFYNKSLSSFKENEENIQCGENFMDIECFMVLNPSQQLAIAVLSLTLGTFTVLENLLVLCVILHSRSLRCRPSYHFIGSLAVADLLGSVIFVYSFIDFHVFHRKDSRNVFLFKLGGVTASFTASVGSLFLTAIDRYISIHRPLAYKRIVTRPKAVVAFCLMWTIAIVIAVLPLLGWNCEKLQSVCSDIFPHIDETYLMFWIGVTSVLLLFIVYAYMYILWKAHSHAVRMIQRGTQKSIIIHTSEDGKVQVTRPDQARMDIRLAKTLVLILVVLIICWGPLLAIMVYDVFGKMNKLIKTVFAFCSMLCLLNSTVNPIIYALRSKDLRHAFRSMFPSCEGTAQPLDNSMGDSDCLHKHANNAASVHRAAESCIKSTVKIAKVTMSVSTDTSAEAL
  normalized CB1R ratio without versus with anandamide (2 mM Ca2+): 1.03 ± 0.04
